In article PMC11417369, “DNA sequence and chromatin differentiate sequence-specific transcription factor binding in the human malaria parasite Plasmodium falciparum”:

Target: T1, AP2-G D1 (Plasmodium falciparum, UniProt Q8I5I9 2123-2245)
T1 sequence: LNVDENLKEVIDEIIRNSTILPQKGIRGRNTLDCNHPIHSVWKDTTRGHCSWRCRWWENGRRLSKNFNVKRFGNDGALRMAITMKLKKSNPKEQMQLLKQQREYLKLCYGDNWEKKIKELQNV
Assay: gcPBM; about 25 ug protein; PBS, 1% milk, 0.2 mg/ml BSA, salmon testes DNA, 0.03% Triton X-100
Conditions: tags: N-terminal GST (pGEX-4T-1), kept; label: surface-attached array probe

B1: XGTACX_negctrl_site364 (dsDNA)
DNA 1: ATAAAATATTAGACATTTATTAATATTACACATATC
DNA 2: GATATGTGTAATATTAATAAATGTCTAATATTTTAT
binding signal: 9.58 ln median PBM intensity, better of two orientations

B2: XGTACX_negctrl_site528 (dsDNA)
DNA 1: TTTTATCAAATATTTATTTTATACATAAATATTTAT
DNA 2: ATAAATATTTATGTATAAAATAAATATTTGATAAAA
binding signal: 9.58 ln median PBM intensity, better of two orientations

B3: XGTACX_negctrl_site143 (dsDNA)
DNA 1: TATTTCGTAATTTAATAATATACAAGAAATATATAT
DNA 2: ATATATATTTCTTGTATATTATTAAATTACGAAATA
binding signal: 9.58 ln median PBM intensity, better of two orientations

B4: XGTACX_negctrl_site67 (dsDNA)
DNA 1: AACAAATAAAGCTATGACATGTTAAAATTGTTTCAC
DNA 2: GTGAAACAATTTTAACATGTCATAGCTTTATTTGTT
binding signal: 9.59 ln median PBM intensity, better of two orientations

B5: XGTACX_negctrl_site307 (dsDNA)
DNA 1: CTTTATCTTCTCACGAAGATTGAATAAGGTATTCTT
DNA 2: AAGAATACCTTATTCAATCTTCGTGAGAAGATAAAG
binding signal: 9.6 ln median PBM intensity, better of two orientations

B6: XGTACX_negctrl_site400 (dsDNA)
DNA 1: AATAATGAAACAGGAAAAAAATATTGTTAAAATGTA
DNA 2: TACATTTTAACAATATTTTTTTCCTGTTTCATTATT
binding signal: 9.6 ln median PBM intensity, better of two orientations

B7: XGTACX_negctrl_site357 (dsDNA)
DNA 1: ATAATTATATAAATATATATAATATATATATGAAAA
DNA 2: TTTTCATATATATATTATATATATTTATATAATTAT
binding signal: 9.61 ln median PBM intensity, better of two orientations

B8: XGTACX_negctrl_site76 (dsDNA)
DNA 1: TTATTATTTATTTTTTATTATTATTATTTTTTTTTA
DNA 2: TAAAAAAAAATAATAATAATAAAAAATAAATAATAA
binding signal: 9.62 ln median PBM intensity, better of two orientations

B9: XGTACX_negctrl_site118 (dsDNA)
DNA 1: AAGGTATACACTGCTTTATCAAGTTTAACTCTTTTT
DNA 2: AAAAAGAGTTAAACTTGATAAAGCAGTGTATACCTT
binding signal: 9.62 ln median PBM intensity, better of two orientations

B10: XGTACX_negctrl_site159 (dsDNA)
DNA 1: TACAAAAAGAATGAAAAATATATAATAAAAATAAAA
DNA 2: TTTTATTTTTATTATATATTTTTCATTCTTTTTGTA
binding signal: 9.63 ln median PBM intensity, better of two orientations

B11: XGTACX_negctrl_site1 (dsDNA)
DNA 1: TACAAACAAACACATAGCAATATATGTTATCAAAAA
DNA 2: TTTTTGATAACATATATTGCTATGTGTTTGTTTGTA
binding signal: 9.63 ln median PBM intensity, better of two orientations

B12: XGTACX_negctrl_site418 (dsDNA)
DNA 1: TTTTTTTTTTTTTTTTCTTTTTTTTTTTTAAATAAG
DNA 2: CTTATTTAAAAAAAAAAAAGAAAAAAAAAAAAAAAA
binding signal: 9.64 ln median PBM intensity, better of two orientations

B13: XGTACX_negctrl_site420 (dsDNA)
DNA 1: AAAAAATAGAATATAAAAATAAAGGAATTAAATTAA
DNA 2: TTAATTTAATTCCTTTATTTTTATATTCTATTTTTT
binding signal: 9.64 ln median PBM intensity, better of two orientations

B14: XGTACX_negctrl_site221 (dsDNA)
DNA 1: TATTTTATAAATACAAGTAAAATTAAATATATAATA
DNA 2: TATTATATATTTAATTTTACTTGTATTTATAAAATA
binding signal: 9.64 ln median PBM intensity, better of two orientations

B15: XGTACX_negctrl_site47 (dsDNA)
DNA 1: ATATATATATAATTATATAAAATATATCATATGTTA
DNA 2: TAACATATGATATATTTTATATAATTATATATATAT
binding signal: 9.64 ln median PBM intensity, better of two orientations

B16: XGTACX_negctrl_site308 (dsDNA)
DNA 1: TACATAATTTAAAATTTTATAAGTTGTAATTCGTTT
DNA 2: AAACGAATTACAACTTATAAAATTTTAAATTATGTA
binding signal: 9.65 ln median PBM intensity, better of two orientations

B17: XGTACX_negctrl_site60 (dsDNA)
DNA 1: TACAGTTTTTCTTTGAATTTATCAAGTTTTTTTCCC
DNA 2: GGGAAAAAAACTTGATAAATTCAAAGAAAAACTGTA
binding signal: 9.65 ln median PBM intensity, better of two orientations

B18: XGTACX_negctrl_site72 (dsDNA)
DNA 1: CTTTCAAAATTATTTATAGTATCTCATATTTTAGTA
DNA 2: TACTAAAATATGAGATACTATAAATAATTTTGAAAG
binding signal: 9.65 ln median PBM intensity, better of two orientations

B19: XGTACX_negctrl_site278 (dsDNA)
DNA 1: TAATATTTCTTATTTTATATTTGTATATGAATGGAT
DNA 2: ATCCATTCATATACAAATATAAAATAAGAAATATTA
binding signal: 9.65 ln median PBM intensity, better of two orientations

B20: XGTACX_negctrl_site513 (dsDNA)
DNA 1: GAAAAAAAAAAAAAAAGAAAATTCATATTTTTAATA
DNA 2: TATTAAAAATATGAATTTTCTTTTTTTTTTTTTTTC
binding signal: 9.66 ln median PBM intensity, better of two orientations

B21: XGTACX_negctrl_site240 (dsDNA)
DNA 1: TTTTTTATAAAATTTTTTTTTTAAAATATTAAAACT
DNA 2: AGTTTTAATATTTTAAAAAAAAAATTTTATAAAAAA
binding signal: 9.66 ln median PBM intensity, better of two orientations

B22: XGTACX_negctrl_site355 (dsDNA)
DNA 1: AAAGGGGAAAATATTATACATATAATAAATCCGTAT
DNA 2: ATACGGATTTATTATATGTATAATATTTTCCCCTTT
binding signal: 9.67 ln median PBM intensity, better of two orientations

B23: XGTACX_negctrl_site87 (dsDNA)
DNA 1: GCATATTTTCCCTGTGAATAAAGTTTTTTTTTTTAT
DNA 2: ATAAAAAAAAAAACTTTATTCACAGGGAAAATATGC
binding signal: 9.67 ln median PBM intensity, better of two orientations

B24: XGTACX_negctrl_site427 (dsDNA)
DNA 1: TTCTATATTTTAGCTGATAATATTATGAGCTTCACT
DNA 2: AGTGAAGCTCATAATATTATCAGCTAAAATATAGAA
binding signal: 9.67 ln median PBM intensity, better of two orientations

B25: XGTACX_negctrl_site599 (dsDNA)
DNA 1: TTTTTGTAAACCTACTTCATAATTATTTATATCTAT
DNA 2: ATAGATATAAATAATTATGAAGTAGGTTTACAAAAA
binding signal: 9.69 ln median PBM intensity, better of two orientations

B26: XGTACX_negctrl_site587 (dsDNA)
DNA 1: TATGAAAAAAAAAAAAAAAAAAAAAAAAAAAAAAAA
DNA 2: TTTTTTTTTTTTTTTTTTTTTTTTTTTTTTTTCATA
binding signal: 9.69 ln median PBM intensity, better of two orientations

B27: XGTACX_negctrl_site314 (dsDNA)
DNA 1: TAATTTATAAGGTATAACAACAATTGCATCTATCAC
DNA 2: GTGATAGATGCAATTGTTGTTATACCTTATAAATTA
binding signal: 9.69 ln median PBM intensity, better of two orientations

B28: XGTACX_negctrl_site373 (dsDNA)
DNA 1: ATTTATAATGATTTTTTTAGTAATCTTGTTATTTTT
DNA 2: AAAAATAACAAGATTACTAAAAAAATCATTATAAAT
binding signal: 9.69 ln median PBM intensity, better of two orientations

B29: XGTACX_negctrl_site542 (dsDNA)
DNA 1: TACATTTCATTGTAATCATAAAAAATAAAGAAAAAA
DNA 2: TTTTTTCTTTATTTTTTATGATTACAATGAAATGTA
binding signal: 9.7 ln median PBM intensity, better of two orientations

B30: XGTACX_negctrl_site380 (dsDNA)
DNA 1: TTTTTTAAAAGATATATAATATGTATGAATATTCAA
DNA 2: TTGAATATTCATACATATTATATATCTTTTAAAAAA
binding signal: 9.71 ln median PBM intensity, better of two orientations

B31: XGTACX_negctrl_site555 (dsDNA)
DNA 1: TTCTTTATTTATCATTATAAGAAGAGTTGATTTGTT
DNA 2: AACAAATCAACTCTTCTTATAATGATAAATAAAGAA
binding signal: 9.71 ln median PBM intensity, better of two orientations

B32: XGTACX_negctrl_site69 (dsDNA)
DNA 1: AGAGTAGGAAATGGAAAAATAAAATAAATAAATAAA
DNA 2: TTTATTTATTTATTTTATTTTTCCATTTCCTACTCT
binding signal: 9.72 ln median PBM intensity, better of two orientations

B33: XGTACX_negctrl_site347 (dsDNA)
DNA 1: AAAATGGAACTAGGAATAATATAAGAAGATAAAAGG
DNA 2: CCTTTTATCTTCTTATATTATTCCTAGTTCCATTTT
binding signal: 9.72 ln median PBM intensity, better of two orientations

B34: XGTACX_negctrl_site480 (dsDNA)
DNA 1: TTGATAAAAAAAAAAAAATAAAAAAAAAATAAAAAA
DNA 2: TTTTTTATTTTTTTTTTATTTTTTTTTTTTTATCAA
binding signal: 9.72 ln median PBM intensity, better of two orientations

B35: XGTACX_negctrl_site80 (dsDNA)
DNA 1: AAACATTTATCAATGAATCTTTTAATAAGTGTAAAG
DNA 2: CTTTACACTTATTAAAAGATTCATTGATAAATGTTT
binding signal: 9.73 ln median PBM intensity, better of two orientations

B36: XGTACX_negctrl_site426 (dsDNA)
DNA 1: TATTAAAATTAAAAAAAAAAAAAAAAGCAATAAAAA
DNA 2: TTTTTATTGCTTTTTTTTTTTTTTTTAATTTTAATA
binding signal: 9.73 ln median PBM intensity, better of two orientations

B37: XGTACX_negctrl_site102 (dsDNA)
DNA 1: TTCTTTTTATTTATATTTTCCCCTCTCTATAGCTAT
DNA 2: ATAGCTATAGAGAGGGGAAAATATAAATAAAAAGAA
binding signal: 9.73 ln median PBM intensity, better of two orientations

B38: XGTACX_negctrl_site180 (dsDNA)
DNA 1: TACATATAAATATATAAATATAAATAAATAAATAAA
DNA 2: TTTATTTATTTATTTATATTTATATATTTATATGTA
binding signal: 9.74 ln median PBM intensity, better of two orientations

B39: XGTACX_negctrl_site374 (dsDNA)
DNA 1: AATAAACATTATTTTCGTATTCCAATTCTTTTTTTT
DNA 2: AAAAAAAAGAATTGGAATACGAAAATAATGTTTATT
binding signal: 9.74 ln median PBM intensity, better of two orientations

B40: XGTACX_negctrl_site268 (dsDNA)
DNA 1: AAAACAAATTTTAATGAGAATATGAAAAAAAAATAT
DNA 2: ATATTTTTTTTTCATATTCTCATTAAAATTTGTTTT
binding signal: 9.74 ln median PBM intensity, better of two orientations

B41: XGTACX_negctrl_site187 (dsDNA)
DNA 1: AATATATATATATATATATATATTTCAATATATAAA
DNA 2: TTTATATATTGAAATATATATATATATATATATATT
binding signal: 9.75 ln median PBM intensity, better of two orientations

B42: XGTACX_negctrl_site461 (dsDNA)
DNA 1: ATGAATTTTTCTCTACAAAAGGATATAATAAAAATA
DNA 2: TATTTTTATTATATCCTTTTGTAGAGAAAAATTCAT
binding signal: 9.76 ln median PBM intensity, better of two orientations

B43: XGTACX_negctrl_site395 (dsDNA)
DNA 1: TTATTAGAGATGTTAAGATATAGGGATAATTTCGAT
DNA 2: ATCGAAATTATCCCTATATCTTAACATCTCTAATAA
binding signal: 9.76 ln median PBM intensity, better of two orientations
